Patent publication US20220251236A1 (Boehringer Ingelheim, published 2022)

What was measured:
[1] = target: T1, human DLL3 (endogenous, on SCLC cell lines NCI-H82 and SHP77 and in SCLC tissue) (human, UniProt Q9NYJ7 27-618); assay: cell-based or functional assay
T1 sequence (looked up): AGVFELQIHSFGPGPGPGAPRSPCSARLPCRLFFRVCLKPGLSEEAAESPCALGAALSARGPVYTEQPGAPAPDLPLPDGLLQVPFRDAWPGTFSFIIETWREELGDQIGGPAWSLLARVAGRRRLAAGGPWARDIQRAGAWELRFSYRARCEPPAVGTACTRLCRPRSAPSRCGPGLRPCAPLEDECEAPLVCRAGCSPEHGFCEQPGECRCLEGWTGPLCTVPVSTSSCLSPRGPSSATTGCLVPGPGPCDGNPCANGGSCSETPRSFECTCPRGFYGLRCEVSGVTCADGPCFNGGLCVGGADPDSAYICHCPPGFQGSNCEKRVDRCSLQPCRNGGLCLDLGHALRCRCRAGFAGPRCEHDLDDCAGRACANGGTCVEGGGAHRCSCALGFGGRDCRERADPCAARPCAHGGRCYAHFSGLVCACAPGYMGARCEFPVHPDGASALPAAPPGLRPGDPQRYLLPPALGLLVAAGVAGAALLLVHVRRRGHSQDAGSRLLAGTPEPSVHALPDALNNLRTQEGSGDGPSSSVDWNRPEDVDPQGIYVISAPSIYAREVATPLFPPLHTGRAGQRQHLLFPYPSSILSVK

[2] = target: T2, Cyno DLL3-His (cynomolgus monkey, UniProt Q9NYJ7 27-492 (human entry)); assay: SPR; ratio of the KD values for human and cyno DLL3
T2 construct: also called cy DLL3; recombinant cyno DLL3-ECD
T2 chain: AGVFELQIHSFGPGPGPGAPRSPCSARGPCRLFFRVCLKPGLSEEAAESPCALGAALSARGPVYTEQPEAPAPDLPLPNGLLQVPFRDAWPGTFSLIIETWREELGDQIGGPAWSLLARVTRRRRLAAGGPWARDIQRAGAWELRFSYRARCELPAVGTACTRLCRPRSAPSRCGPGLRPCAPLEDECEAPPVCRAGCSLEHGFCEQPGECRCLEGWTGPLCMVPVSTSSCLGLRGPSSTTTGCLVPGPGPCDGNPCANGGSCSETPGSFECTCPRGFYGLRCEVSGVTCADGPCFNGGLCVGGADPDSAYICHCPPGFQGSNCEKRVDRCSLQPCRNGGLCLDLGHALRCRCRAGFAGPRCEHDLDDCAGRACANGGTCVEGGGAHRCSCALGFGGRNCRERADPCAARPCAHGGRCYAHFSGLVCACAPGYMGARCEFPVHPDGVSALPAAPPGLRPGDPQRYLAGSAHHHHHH
Protocol: (§1) The binding affinity of purified DLL3/CD3 bispecific constructs for recombinant human and cyno DLL3-ECD and Fc-fusion proteins of human and cyno CD3 εγ subunits was determined by Surface Plasmon Resonance (SPR), using a ProteOn XPR36 instrument (Bio-Rad). The running buffer and all dilutions (except where stated) were done in PBS-T-EDTA. The GLM sensor chip (Bio-Rad) was normalized and pre-conditioned as per the manufacturer's recommendations. The sensor chip was activated with equal mixture of EDC/s-NHS in the horizontal direction for 300 sec at a flow rate of 30 ul/min and immobilized with protein A/G (20 ug/ml in 10 mM acetate pH 4.5) in the horizontal direction for 300 sec at a flowrate of 30 ul/min resulting in ˜5000 RU of protein A/G on the surface. The sensor chip was deactivated with 1M ethanolamine HCl in the horizontal direction for 300 sec at a flowrate of 30 μl/min.
For binding kinetic determination to DLL3, bispecific molecules were captured individually on the protein A/G surface vertically for 250 sec at a flowrate of 25 μl/min. The baseline was stabilized by injecting PBS-T-EDTA for 60 sec at a flowrate of 40 μl/min horizontally. The analyte (hu DLL3 or cy DLL3) was injected horizontally over the captured antibody for 600 sec at a flowrate of 40 μl/min and a dissociation for 2700 sec.
(§2) The inter spot (interactions with sensor surface) and blank (PBS-T-EDTA) were subtracted from the raw data.

[3] = target: T3, EGF6+MEMBRANE PROXIMAL PEPTIDE; assay: flow cytometry on HEK293 cells expressing the DLL3 subdomain construct, 1.6 nM binder, PE anti-human secondary, control: secondary antibody only
T3 construct: also called Hu DLL3 EGF6+membrane proximal peptide on HEK293 cells
T3 membrane-anchored DLL3 subdomain construct: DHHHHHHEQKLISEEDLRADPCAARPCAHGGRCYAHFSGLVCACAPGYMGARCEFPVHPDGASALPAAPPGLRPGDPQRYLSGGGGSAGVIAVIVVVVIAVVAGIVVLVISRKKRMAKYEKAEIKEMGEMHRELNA
Protocol: DLL3/CD3 binding proteins were produced by transient transfection of CHO-E cells with the pTT5 vectors carrying the chain-encoding genes, as described in Example 2. […] Bound molecules were detected with PE-conjugated anti-human secondary antibody (Sigma-Aldrich, #P8047). As negative control, cells were incubated with secondary antibody only.
The samples were measured by flow-cytometry. […] The sequences of the epitope domains are listed in Example 5, Table 3.

[4] = target: T4, chicken egg white lysozyme (chicken, UniProt P00698 19-147); assay: SPR (Biacore T200), lysozyme coupled to CM5 chip, non-specific binding assay
T4 construct: also called Lysozyme (positive)
Protocol: The experiment was performed on a Biacore T200. The dilution, surface preparation, and binding experiments were performed at 25° C. in 1×HBS-EP buffer prepared from 10× HBS-EP. The flow rate for both the immobilization protocol and binding experiment was at 5 μL/min.
To prepare the surface for the non-specific binding experiment, chicken egg white lysozyme and trypsin inhibitor from glycine max soybean were coupled manually to a series S CM5 chip with the surface density of 3000-5000 RU using the amine coupling kit according to the manufacture instructions.
Samples were prepared at 1 μM in 1×HBS-EP buffer. The samples were injected over activated surfaces with a 10 min association and 10 min dissociation. The data was collected using Biacore T200 Control Software version 2.0.1 and analyzed using Biacore T200 Evaluation Software version 3.0.

[5] = target: T5, Human CD3 E+G HuFc-6xHis (human); assay: SPR (ProteOn XPR36), CD3εγ-Fc amine-coupled, bispecific as analyte, equilibrium fit, Example 4A
T5 construct: also called hu CD3εγ-Fc
Protocol: as §1
For binding kinetic determination to CD3, hu CD3εγ-Fc and cy CD3εγ-Fc (dissolved in pH 4.5 acetate) was immobilized directly onto the sensor surface through amine coupling for 140 sec at a flowrate of 30 μl/min vertically. The baseline was stabilized by injecting PBS-T-EDTA for 60 sec at a flowrate of 40 μl/min horizontally. The analyte (the bispecific molecule) was injected horizontally over the captured CD3εγ-Fc construct for 600 sec at a flowrate of 40 μl/min and a dissociation for 600 sec.
as §2

T5 sequence (chain, as listed by the source limits assumed): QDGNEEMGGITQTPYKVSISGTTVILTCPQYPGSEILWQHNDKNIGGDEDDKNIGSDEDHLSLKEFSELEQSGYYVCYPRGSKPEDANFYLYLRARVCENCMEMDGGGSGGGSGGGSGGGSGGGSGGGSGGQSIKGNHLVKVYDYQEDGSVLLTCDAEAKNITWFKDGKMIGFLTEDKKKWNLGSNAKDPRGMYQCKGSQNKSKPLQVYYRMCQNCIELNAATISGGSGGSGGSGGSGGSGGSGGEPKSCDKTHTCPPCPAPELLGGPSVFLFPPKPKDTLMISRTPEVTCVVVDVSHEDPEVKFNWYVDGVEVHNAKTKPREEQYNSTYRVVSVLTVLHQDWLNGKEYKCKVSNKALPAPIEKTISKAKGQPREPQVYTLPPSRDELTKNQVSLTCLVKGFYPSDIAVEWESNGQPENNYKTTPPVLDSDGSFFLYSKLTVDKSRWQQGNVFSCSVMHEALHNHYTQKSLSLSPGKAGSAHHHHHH
T4 sequence (P00698 19-147): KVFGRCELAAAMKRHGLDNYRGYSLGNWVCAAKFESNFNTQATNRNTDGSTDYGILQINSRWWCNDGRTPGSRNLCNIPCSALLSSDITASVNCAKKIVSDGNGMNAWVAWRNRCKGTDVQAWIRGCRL

B1: DLL3#3/CD3#2 (bispecific antibody, human IgG1, kappa, lambda, L234A L235A)
chain 1: DIQMTQSPSAMSASVGDRVTITCRASQGISNYLVWFQQKPGKAPKRLIYAVSSLYSGVPSRFSGSGSGTEFTLTISSLQPEDFATYYCLQHDSYPYTFGQGTKLEIKRTVAAPSVFIFPPSDEQLKSGTASVVCLLNNFYPREAKVQWKVDNALQSGNSQESVTEQDSKDSTYSLSSTLTLSKADYEKHKVYACEVTHQGLSSPVTKSFNRGECGGGGSEGKSSGSGSESKSTEGKSSGSGSESKSTGGGGSQVQLVQSGAEVKKPGASVKVSCKASGYTFTSYYVHWVRQAPGQGLEWMVIINPGGGTTSYAQKFLGRVTMTRDTSTNTVYMELKSLRSEDTAVYYCARGEAVTGNYFYYGMDVWGQGTTVTVSSASTKGPSVFPLAPSSKSTSGGTAALGCLVKDYFPEPVTVSWNSGALTSGVHTFPAVLQSSGLYSLSSVVTVPSSSLGTQTYICNVNHKPSNTKVDKRVEPKSCDKTHTCPPCPAPEAAGGPSVFLFPPKPKDTLMISRTPEVTCVVVDVSHEDPEVKFNWYVDGVEVHNAKTKPREEQYNSTYRVVSVLTVLHQDWLNGKEYKCKVSNKALPAPIEKTISKAKGQPREPQVYTLPPSREEMTKNQVSLWCLVKGFYPSDIAVEWESNGQPENNYKTTPPVLDSDGSFFLYSKLTVDKSRWQQGNVFSCSVMHEALHNHYTQKSLSLSPG
chain 2: EAVVTQEPSLTVSPGGTVTLTCRSSTGAVTTSNYANWVQEKPGQLPRGLIGGTNKRAPWVPARFSGSLLGGKAALTLSGAQPEDEAEYFCALWYSNLWVFGGGTKLTVLGQPKAAPSVTLFPPSSEELQANKATLVCLISDFYPGAVKVAWKADGSPVNTGVETTTPSKQSNNKYAASSYLSLTPEQWKSHRSYSCQVTHEGSTVEKTVAPAECSGGGGSEGKSSGSGSESKSTEGKSSGSGSESKSTGGGGSEVQLVESGGGLVQPGGSLKLSCAASGFTFNTYAMNWVRQAPGKGLEWVARIRSKYINYATYYADSVKDRFTISRDDSKNTAYLQMNNLKTEDTAVYYCVRHGNFGNSYVSWFAYWGQGTLVTVSAASTKGPSVFPLAPSSKSTSGGTAALGCLVKDYFPEPVTVSWNSGALTSGVHTFPAVLQSSGLYSLSSVVTVPSSSLGTQTYICNVNHKPSNTKVDKRVEPKSCDKTHTCPPCPAPEAAGGPSVFLFPPKPKDTLMISRTPEVTCVVVDVSHEDPEVKFNWYVDGVEVHNAKTKPREEQYNSTYRVVSVLTVLHQDWLNGKEYKCKVSNKALPAPIEKTISKAKGQPREPQVYTLPPSREEMTKNQVSLSCAVKGFYPSDIAVEWESNGQPENNYKTTPPVLDSDGSFFLVSKLTVDKSRWQQGNVFSCSVMHEALHNRFTQKSLSLSPG
notes: Heterodimer of one DLL3 chain and one CD3 chain (scFab-Fc, knob-in-hole)
EC90, 72 hour cytotoxicity assay (LDH release), non-stimulated PBMCs as effector cells, NCI-H82 target cells [1]: 3.9 nM | EC90, 72 hour cytotoxicity assay (LDH release), non-stimulated PBMCs as effector cells, SHP77 target cells [1]: 16.5 nM | Affinity gap KD hu/cyno DLL3 [2]: 1 | binding result [3]: binds | binding result [4]: no binding (tested: 1 µM) | Kd [5]: 90 nM
